Experimental data published in patent US20070148201A1 (Pieris, published 2007).
Values belong to the binder of their own block, whether it stands above or below them.

Legend:
[1] = biological target: T1, extracellular domain of human CD154 (human, UniProt P29965 47-261); assay: ELISA, CD154 coated on plate, mutein titrated from 2000 nM, anti-Strep-tag II-HRP detection, apparent KD from curve fit
T1 construct: extracellular domain; Colony screening: conjugate with digoxigenin
T1 sequence (looked up): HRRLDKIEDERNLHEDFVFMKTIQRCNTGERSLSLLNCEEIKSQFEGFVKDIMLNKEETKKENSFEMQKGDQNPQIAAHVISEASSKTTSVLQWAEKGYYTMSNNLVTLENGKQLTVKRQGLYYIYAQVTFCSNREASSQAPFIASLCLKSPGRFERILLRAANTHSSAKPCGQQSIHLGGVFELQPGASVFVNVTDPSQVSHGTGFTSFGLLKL
Method: (§1) After washing five times with 100 μl PBST/0.05 per well employing an automated ELISA plate washer, the wells were filled with 100 μl PBST containing 3% w/v non-fat dry milk powder (Vitalia), in order to saturate unspecific binding sites and incubated for one hour at room temperature. After blocking, the microtiter plate was washed two times with 100 μl PBST/0.05 as described above.
Then a dilution series of the muteins from Example 16 in SA-buffer was prepared in PBST starting from 2000 nM concentration and incubated for 1 h at room temperature. Subsequently, plates were washed again five times like above and 20 μl of an anti-Strep-tag® II monoclonal antibody-HRP-conjugate (IBA), diluted 1:1000 in PBST was added to each well and incubated for 1 hour at room temperature. Plates were again washed five times as described above and 20 μl of the fluorogenic HRP-substrate QuantaBlu™ (diluted as described by the manufacturer) was added to detect bound BBP muteins by means of the attached anti-Strep-tag® II monoclonal antibody-HRP-conjugate. After 10 minutes at room temperature fluorescence was excited at a wavelength of 320 nm (±12.5 nm) and measured at 430 nm (±17.5 nm) in a GENiosPlus plate reader.
The resulting binding curves were fitted by non-linear least squares regression as described in Example 8 and are depicted in FIG. 11. […]

BSA = biological target: T2, BSA (UniProt P02769 25-607); assay: ELISA: BSA coated on the plate as control, BBP mutein titrated 0-2000 nM, detected with anti-Strep-tag II antibody-HRP, fluorescence (Example 17)
T2 construct: Control protein coated on the ELISA plate; also called unrelated control protein BSA
T2 sequence (P02769 25-607 limits assumed): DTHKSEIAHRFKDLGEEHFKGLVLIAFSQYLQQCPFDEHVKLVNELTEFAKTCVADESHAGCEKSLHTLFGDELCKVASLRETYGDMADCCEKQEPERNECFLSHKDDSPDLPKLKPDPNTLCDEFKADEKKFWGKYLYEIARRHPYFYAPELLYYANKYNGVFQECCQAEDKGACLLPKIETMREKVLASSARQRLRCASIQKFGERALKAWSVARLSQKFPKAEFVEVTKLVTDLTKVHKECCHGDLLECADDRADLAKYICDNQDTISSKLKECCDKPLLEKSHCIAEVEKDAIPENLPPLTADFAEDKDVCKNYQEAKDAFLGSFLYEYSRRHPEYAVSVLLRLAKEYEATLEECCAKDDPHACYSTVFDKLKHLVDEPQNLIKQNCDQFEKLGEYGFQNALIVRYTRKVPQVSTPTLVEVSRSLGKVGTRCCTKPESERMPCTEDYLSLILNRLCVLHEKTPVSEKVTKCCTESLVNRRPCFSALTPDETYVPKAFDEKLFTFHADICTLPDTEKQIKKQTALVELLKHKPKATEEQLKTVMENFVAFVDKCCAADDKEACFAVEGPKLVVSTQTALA

[2] = biological target: fusion construct of the CD4 V-domain and CD4 D1-domain of the human CD4 coreceptor (amino acids 1-184) with … (human, UniProt P01730 26-209); assay: ELISA, mutein coated on plate, digoxigenin-conjugated CD4-VD1 titrated from 2000 nM, anti-digoxigenin Fab-AP detection, apparent KD from curve fit
Method: as §1
(§2) Then a dilution series of conjugates of digoxigenin and either the prescribed protein target CD4-VD1 or the unrelated control protein RNaseB, both produced as described in Example 25, was prepared in PBST starting from 2000 nM concentration and incubated for 1 h at room temperature. Subsequently, plates were washed again five times like above and 20 μl of an anti-digoxigenin-Fab-fragment-alkaline phosphatase-conjugate (Roche), diluted 1:1000 in PBST was added to each well and incubated for 1 hour at room temperature. Plates were washed again five times as described above and 20 μl of the fluorogenic substrate AttoPhos (Roche; prepared as described by the manufacturer) was added to detect bound CD4-VD1 by means of the attached digoxigenin groups. After 10 minutes at room temperature fluorescence was excited at a wavelength of 430 nm (±17.5 nm) and measured at 535 nm (÷12.5 nm) in a GENiosPlus plate reader.
The resulting binding curves were fitted by non-linear least squares regression as described in Example 8 and are depicted in FIG. 14 and FIG. 15. The values obtained for the apparent dissociation constants of the complexes between the BBP muteins CD4-2C3-K20, CD4-2C3-N22, CD4-2G3-H22, CD4-2G3-L22, CD4-7B4-K21, CD4-7B4-K23, and CD4-7B4-N14 and the prescribed target protein CD4-VD1 as well as for the complexes between the BBP muteins and the control protein RNaseB are summarized in Table 11.

RNaseB [3] = biological target: T3, RNaseB (UniProt P61823 27-150); assay: ELISA: BBP mutein coated on the plate, digoxigenin-conjugated RNaseB titrated 0-2000 nM, detected with anti-digoxigenin Fab-alkaline phosphatase, fluorescence (Example 27)
T3 construct: also called unrelated control protein RNaseB
T3 sequence (looked up): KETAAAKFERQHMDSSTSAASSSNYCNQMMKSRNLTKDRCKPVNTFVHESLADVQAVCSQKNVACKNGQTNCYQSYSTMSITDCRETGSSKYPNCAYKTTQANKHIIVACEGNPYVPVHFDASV
Method: as §1, §2

RNaseB [4] = biological target: T3, RNaseB; assay: ELISA, RNaseB coated on plate, anti-T7-HRP detection
Method: (§3) Afterwards, the wells were washed and blocked as described in Example 8.
(§4) Then, a dilution series of the BBP muteins from Example 11 in SA-buffer was prepared in PBST starting from 1000 nM concentration and incubated for 1 h at room temperature. Subsequently, plates were washed again five times, anti-T7 monoclonal antibody-HRP-conjugate was added and incubated for 1 hour at room temperature followed by washing and addition of fluorogenic HRP-substrate QuantaBlu™ as described in Example 8. After 10 minutes at room temperature fluorescence was excited at a wavelength of 320 nm (±12.5 nm) and measured at 430 nm (±17.5 nm) in a GENiosPlus plate reader.

type I horse ferritin [5] = biological target: T4, type I horse ferritin (horse, UniProt P02791 2-175; Q8MIP0 2-182, limits assumed); assay: ELISA, ferritin coated on plate, mutein titrated from 1000 nM, anti-T7-HRP detection, apparent KD from curve fit
T4 construct: the natural protein is a shell of light and heavy chains
T4 sequence (P02791 2-175 limits assumed, chain 1 of 2): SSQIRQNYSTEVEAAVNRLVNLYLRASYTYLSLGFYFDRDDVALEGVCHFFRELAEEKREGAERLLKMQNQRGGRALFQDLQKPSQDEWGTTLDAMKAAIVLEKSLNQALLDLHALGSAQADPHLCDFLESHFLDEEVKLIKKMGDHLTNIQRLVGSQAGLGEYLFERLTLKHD
T4 sequence (Q8MIP0 2-182 limits assumed, chain 2 of 2): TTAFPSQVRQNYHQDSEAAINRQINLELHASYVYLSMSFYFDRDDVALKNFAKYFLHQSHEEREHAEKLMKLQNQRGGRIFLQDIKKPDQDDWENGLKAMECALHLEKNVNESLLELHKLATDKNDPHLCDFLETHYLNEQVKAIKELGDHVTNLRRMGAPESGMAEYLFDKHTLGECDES
Method: as §3, §4
The resulting binding curves were fitted by non-linear least squares regression as described in Example 8 and are depicted in FIG. 8. The values obtained for the apparent dissociation constants of the complexes between the BBP muteins and the prescribed target ferritin are summarized in Table 5.

type I horse ferritin [6] = biological target: T4, type I horse ferritin; assay: high-throughput ELISA screening, crude cell extract, ferritin or aldolase coated on plate, anti-T7-HRP detection; Fer-N22 is one of the clones taken on from these 14
Method: (§5) For the detection of binding, these cell extracts were tested for their reactivity on the prescribed target type I horse ferri tin as well as the unrelated control protein aldolase in ELISA experiments. Therefore, wells of black Fluotrac 600 ELISA plates (Greiner; 384 well) were coated overnight with 20 μl of a solution of ferritin (Sigma) or aldolase (Roche) at 4° C., each at a concentration of 20 μg/ml in PBS. Plates were washed five times with 100 μl PBST/0.05 per well with an automated ELISA plate washer (Molecular Devices) leaving a residual volume of 10 μl of the washing buffer in each well after the last washing step. Residual binding sites were blocked by incubation with 100 μl PBST/0.05 containing 2% w/v BSA for 2 h at room temperature. Afterwards, plates were again washed five times as described above.
(§6) For complex formation between the BBP muteins and the immobilized proteins, the wells were incubated with 10 μl of the blocked cell extract from above for 1 hour at room temperature. […] After 60 minutes at room temperature fluorescence was excited at a wavelength of 320 nm (±12.5 nm) and measured at 430 nm (±17.5 nm) in a GENiosPlus plate reader (Tecan).

type I horse ferritin [7] = biological target: T4, type I horse ferritin; assay: high-throughput ELISA screening, crude cell extract, ferritin or aldolase coated on plate, anti-T7-HRP detection; Fer-I21 is one of the clones taken on from these 14
Method: as §5, §6

- Kd [2]: 200 nM
- binding result (RNaseB [3]): no binding (tested: 2000 nM)
B2: BBP mutein CD4-2G3-L22 (designed binder)
chain: DVYHDGACPEVKPVDNFDWSQYHGKWWEVAKYPNIAELGGKCGWAEYTPEGKSVKVSNYHVINWNEMFIEGTAYPVGDSKIGKISHSLTKVGQTKENVFNVLSTDNKNYIIGYYCQYSERAKGHLDFVWVLSRSMVLTGEAKTAVENYLIGSPVVDSQKLVYSDFSEAACKVNN

- Kd [1]: 174 nM
- binding result (BSA): no binding (tested: 2000 nM)
B4: BBP mutein CD154-13-10-4 (designed binder)
chain: DVYHDGACPEVKPVDNFDWSQYHGKWWEVAKYPNSHETGGKCGWAEYTPEGKSVKVSNYHVITPHERFIEGTAYPVGDSKIGKIYHSLTWIGTTKENVFNVLSTDNKNYIIGYYCSYSEAGKGHQDFVWVLSRSMVLTGEAKTAVENYLIGSPVVDSQKLVYSDFSEAACKVNN

- Kd (type I horse ferritin [5]): 26 nM
- signal-to-control ratio (ferritin against aldolase) (type I horse ferritin [7]): > 5
B5: BBP mutein Fer-I21 (designed binder)
chain: DVYHDGACPEVKPVDNFDWSQYHGKWWEVAKYPNQKEKWGKCGWAEYTPEGKSVKVSNYHVIKRPERFIEGTAYPVGDSKIGKIYHSLTRLGKTKENVFNVLSTDNKNYIIGYYCLYPEGWKGHKDFVWVLSRSMVLTGEAKTAVENYLIGSPVVDSQKLVYSDFSEAACKVNN
notes: Tested as expressed from pBBP47: C-terminal T7 tag followed by Strep-tag II
- binding result (RNaseB [4]): no binding (tested: dilution series starting from 1000 nM)

- Kd [2]: 105 nM
- binding result (RNaseB [3]): no binding (tested: 2000 nM)
B6: BBP mutein CD4-2G3-H22 (designed binder)
chain: DVYHDGACPEVKPVDNFDWSQYHGKWWEVAKYPNMTEVKGKCGWAEYTPEGKSVKVSNYHVIREKEWFIEGTAYPVGDSKIGKIYHSLTISGLTKENVFNVLSTDDKNYIIGYYCKYMELWKGHRDFVWVLSRSMVLTGEAKTAVENYLIGSPVVDSQKLVYSDFSEAACKVNN

- Kd [2]: 169 nM
- binding result (RNaseB [3]): no binding (tested: 2000 nM)
B9: BBP mutein CD4-7B4-K23 (designed binder)
chain: DVYHDGACPEVKPVDNFDWSQYHGKWWEVAKYPNGNELRGKCGWAEYTPEGKSVKVSNYHVINTSEGFIEGTAYPVGDSKIGKIYHSLTNTGMTKENVFNVLSTDNKNYIIGYYCSWEVSKGHHDFVWVLSRSMVLTGEAKTAVENYLIGSPVVDSQKLVYSDFSEAACKVNNS

Second part, the binder before the results:

B1: BBP mutein CD154-13-10-1 (designed binder)
chain: DVYHDGACPEVKPVDNFDWSQYHGKWWEVAKYPNQIEQGGKCGWAEYTPEGKSVKVSNYHVIYASEDFIEGTAYPVGDSKIGKIYHSLTSSGVTKENVFNVLSTDNKNYIIGYYCGYREAPKGHMDFVWVLSRSMVLTGEAKTAVENYLIGSPVVDSQKLVYSDFSEAACKVNN
- Kd [1]: 89 nM
- binding result (BSA): no binding (tested: 2000 nM)

B3: BBP mutein Fer-N22 (designed binder)
chain: DVYHDGACPEVKPVDNFDWSQYHGKWWEVAKYPNGGESPGKCGWAEYTPEGKSVKVSNYHVIKKRERFIEGTAYPVGDSKIGKICHSLTWSGLTKENVFNVLSTDNKNYIIGYYCKYKERKKGHGDFVWVLSRSMVLTGEAKTAVENYLIGSPVVDSQKLVYSDFSEAACKVNN
notes: as for B5
- binding result (RNaseB [4]): no binding (tested: dilution series starting from 1000 nM)
- Kd (type I horse ferritin [5]): 45 nM
- signal-to-control ratio (ferritin against aldolase) (type I horse ferritin [6]): > 5

B7: BBP mutein CD4-2C3-N22 (designed binder)
chain: DVYHDGACPEVKPVDNFDWSQYHGKWWEVAKYPNAKESPGKCGWAEYTPEGKSVKVSNYHVIQRLEGFIEGTAYPVGDSKIGKIYHSLTTWGLTKENVFNVLSTDNKNYIIGYYCGYVEKSKGHPDFVWVLSRSMVLTGEAKTAVENYLIGSPVVDSQKLVYSDFSEAACKVNN
- Kd [2]: 185 nM
- binding result (RNaseB [3]): no binding (tested: 2000 nM)

B8: BBP mutein CD4-2C3-K20 (designed binder)
chain: DVYHDGACPEVKPVDNFDWSQYHGKWWEVAKYPNTSEHSGKCGWAEYTPEGKSVKVSNYHVIKKKERFIEGTAYSAGDSKIGKIYHSLTSVGKTKENVFNVLSTDNKNYIIGYYCSYKEKTKGHGDFVWVLSRSMVLTGEAKTAVENYLIGSPVVDSQKLVYSDFSEAACKVNN
- Kd [2]: 136 nM
- binding result (RNaseB [3]): no binding (tested: 2000 nM)

B10: BBP mutein CD4-7B4-N14 (designed binder)
chain: DVYHDGACPEVKPVDNFDWSQYHGKWWEVAKYPNRAEIGGKCGWAEYTPEGKSVKVSNYHVIKQWEKFIEGTAYPVGDSKIGKIYHSLTGTGSTKENVFNVLSTDNKNYIIGYYCNYHESRKGHRDFVWVLSRSMVLTGEAKTAVENYLIGSPVVDSQKLVYSDFSEAACKVNN
- Kd [2]: 177 nM
- binding result (RNaseB [3]): no binding (tested: 2000 nM)
